Legend:
inguinal fat = assay: Irisin injection in mice: Ucp1/Dio2 mRNA and Ucp1 protein in inguinal fat; assay type: in vivo
Protocol: FIG. 18A-FIG. 18B show mRNA and protein levels of indicated genes. 1 mg/kg irisin was injected to 8-week old mice every other day for 6 days. mRNA levels of indicated genes in inguinal fat were analyzed by qRT-PCR. Cyclophilin was used for housekeeping gene (FIG. 18A). Inguinal fats were also lysed to detect the indicated protein level using immunoblot analysis (FIG. 18B). FIGS. 18C and 18D show mRNA and protein levels of indicated genes. Mice were treated and analyzed as (A-B) with addition of coinjection of […] control RGD peptide or cyclo RGDyK (cRGDyK). mRNA levels of indicated genes in inguinal fat were analyzed by qRT-PCR. Cyclophilin was used for house-keeping gene (FIG. 18C). Inguinal fats were also lysed to detect the indicated protein level using immunoblot analysis (FIG. 18D). […] Ucp1 mRNA level was analyzed by qRT-PCR. […]
RNA was extracted from cultured cells or frozen tissues using TRIzol® (Thermo Fischer Scientific) and purified with RNeasy® mini kit (QIAGEN 74106). […] To perform qRT-PCR analysis, normalized RNA was reverse transcribed using a high-capacity cDNA reverse-transcription kit (Applied Biosystems™). cDNA was analyzed by qRT-PCR with indicated primers. Relative mRNA levels were calculated using the comparative CT method and normalized to cyclophilin mRNA. […]

integrin αV/β1 = biological target: T1, integrin αV/β1 (Homo sapiens, UniProt P05556+P06756); assay: FAK phosphorylation in HEK293T cells with forced expression of integrin αV/β1; assay type: cell-based
T1 construct: expressed in transfected cells; host or cells: HEK293T
Protocol: 100 nM irisin was incubated with 5 nM indicated his-tag integrins followed by immunoprecipitation using Ni-NTA agaroses. Precipitated integrins and co-precipitated irisin were analyzed by immunoblot analysis. […] HEK293T cells were seeded and incubated until 50% cell density. The cells were transfected with 0.1 μg plasmids of indicated integrins. After 48 hours, the cells were re-split to indicated dose of vitronectin-coated plates. Cells were incubated with culture medium for 3 hours. Cells were lysed to detect the indicated protein level using immunoblot analysis. FIG. 15C and FIG. 15D show the immunoblot data. Cells were treated and analyzed as FIG. 14B except using plasmids encoding integrin α5/β1 or integrin α11/β1 (FIG. 15C) integrin αV/β1(FIG. 15D).
HEK293T cells were set up for experiments at 1×10^5 cells per well in 6 well plate. On day 2, cells were transiently transfected with the indicated plasmids with FuGENE® 6 reagent (Roche Applied Science) according to the manufacturer's protocol. […]
Cells were harvested in RIPA buffer containing protease-inhibitor cocktail and phosphataseinhibitor cocktail. […] Protein levels were analyzed via western blot using indicated antibody. […] Protein levels were analyzed using western blot against indicated antibody.

[1] = Half-life of recombinant his-tag irisin in vivo, plasma immunoblot against his-tag; details: C57BL/6 mice, 1 mg/kg I.P.
Protocol: C57BL/6 mice were injected with irisin (1 mg/kg, I.P.) or sterilized PBS and blood was collected at indicated time point. Irisin in plasma was detected using immunoblot analysis against his-tag.

T1 sequence (P06756 31-889 limits assumed): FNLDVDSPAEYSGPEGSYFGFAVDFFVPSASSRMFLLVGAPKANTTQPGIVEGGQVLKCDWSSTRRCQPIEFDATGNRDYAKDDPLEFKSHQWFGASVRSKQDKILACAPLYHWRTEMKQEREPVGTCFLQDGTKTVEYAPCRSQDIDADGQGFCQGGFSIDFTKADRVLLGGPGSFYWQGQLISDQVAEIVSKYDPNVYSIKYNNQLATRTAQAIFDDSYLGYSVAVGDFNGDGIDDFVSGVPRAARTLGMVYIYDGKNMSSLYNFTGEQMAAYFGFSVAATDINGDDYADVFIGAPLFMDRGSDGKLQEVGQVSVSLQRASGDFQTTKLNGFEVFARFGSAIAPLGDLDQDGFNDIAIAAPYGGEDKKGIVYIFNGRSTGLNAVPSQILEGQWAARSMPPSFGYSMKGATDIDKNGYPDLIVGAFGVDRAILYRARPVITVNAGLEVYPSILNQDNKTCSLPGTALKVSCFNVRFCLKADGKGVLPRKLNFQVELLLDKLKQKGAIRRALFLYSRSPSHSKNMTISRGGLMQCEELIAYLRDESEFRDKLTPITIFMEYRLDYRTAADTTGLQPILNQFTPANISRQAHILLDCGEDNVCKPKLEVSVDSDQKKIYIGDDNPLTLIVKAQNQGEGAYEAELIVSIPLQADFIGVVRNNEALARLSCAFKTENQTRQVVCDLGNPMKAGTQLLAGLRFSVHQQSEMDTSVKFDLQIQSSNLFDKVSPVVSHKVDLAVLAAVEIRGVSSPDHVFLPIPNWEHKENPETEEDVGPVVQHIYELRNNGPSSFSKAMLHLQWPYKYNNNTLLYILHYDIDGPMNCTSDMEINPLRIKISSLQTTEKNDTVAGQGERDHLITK
T1 sequence (P06756 891-1048 partner limits assumed): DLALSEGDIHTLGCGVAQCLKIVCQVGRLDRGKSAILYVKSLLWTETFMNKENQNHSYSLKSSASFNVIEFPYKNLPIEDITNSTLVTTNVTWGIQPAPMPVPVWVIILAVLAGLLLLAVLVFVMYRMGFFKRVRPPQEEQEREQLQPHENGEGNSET
T1 sequence (P05556 21-798): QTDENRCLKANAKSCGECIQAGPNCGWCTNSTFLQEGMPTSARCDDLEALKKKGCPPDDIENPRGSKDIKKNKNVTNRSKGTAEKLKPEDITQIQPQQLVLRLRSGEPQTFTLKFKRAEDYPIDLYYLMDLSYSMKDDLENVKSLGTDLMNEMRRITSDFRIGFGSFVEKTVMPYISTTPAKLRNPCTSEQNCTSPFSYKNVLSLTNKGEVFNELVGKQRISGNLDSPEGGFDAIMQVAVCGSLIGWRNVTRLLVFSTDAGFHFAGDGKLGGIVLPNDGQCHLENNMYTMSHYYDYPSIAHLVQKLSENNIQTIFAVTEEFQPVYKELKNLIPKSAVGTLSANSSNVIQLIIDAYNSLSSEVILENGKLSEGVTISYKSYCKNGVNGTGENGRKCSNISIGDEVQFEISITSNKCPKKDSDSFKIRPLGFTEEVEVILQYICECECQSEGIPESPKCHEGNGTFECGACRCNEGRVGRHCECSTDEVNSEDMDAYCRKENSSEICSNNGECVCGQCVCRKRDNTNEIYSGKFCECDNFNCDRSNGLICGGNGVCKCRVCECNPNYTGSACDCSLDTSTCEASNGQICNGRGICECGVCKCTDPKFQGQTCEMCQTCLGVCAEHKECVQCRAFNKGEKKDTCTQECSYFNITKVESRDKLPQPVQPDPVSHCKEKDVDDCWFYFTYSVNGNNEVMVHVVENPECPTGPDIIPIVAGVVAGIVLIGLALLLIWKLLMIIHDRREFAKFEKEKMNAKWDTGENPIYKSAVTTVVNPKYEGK

B1: irisin: secreted cleaved form of FNDC5; recombinant human/mouse irisin with C-terminal his tag produced in HEK293 cells (protein)
chain: DSPSAPVNVTVRHLKANSAVVSWDVLEDEVVIGFAISQQKKDVRMLRFIQEVNTTTRSCALWDLEEDTEYIVHVQAISIQGQSPASEPVLFKTPREAEKMASKNKDEVTMKE
modifications: left off: small tags and cut ends
notes: secreted cleaved form of FNDC5; recombinant human/mouse irisin with C-terminal his tag produced in HEK293 cells
Inguinal fat; mice, irisin injections
  Ucp1 protein level in whole tissue (western blot): also increased
Inguinal fat; wild-type mice, 1 mg/kg irisin every other day for 6 days
  increase of mRNA level of Ucp1: more than 2 fold
Integrin αV/β1
  phosphorylation of FAK upon irisin treatment: increased FAK phosphorylation
[1]
  half-life in vivo: less than an hour

Source: US20210063414A1, “METHODS FOR PREVENTING AND/OR TREATING BONE LOSS CONDITIONS BY MODULATING IRISIN” (Dana-Farber Cancer Institute, Inc., priority 2018, published 2021)
